Source: the supplement of paper PMC10567573

B1: ZNF8 (parent)
chain: VHVIGVEEPSVGASMLFDIREST
B2: KRT34 (parent)
chain: PTVDLNQVLNETRSQYEALVETNR

Variants of: B1
Test: protein stability index of a GFP-peptide fusion (GPS, HEK-293T) (PSI 1-6); higher = more stable
Details: c terminus: native
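Further: lentivirally expressed fusions sorted by FACS into six bins by GFP to DsRed ratio, PSI derived from sequencing read proportions per bin multiplied by bin number.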

Protein stability index of substitutions, site by site:
F17: E 3.91, N 3.33, R 3.08, K 3.4, V 2.21, M 2.52, S 3.11, Y 2.15, P 3.77, H 3.17, C 2.71, W 2.28, Q 3.41, A 3.44, I 1.74, T 2.68, D 3.79, G 3.66, L 2.03
S14: R 1.9, A 1.86, Y 2.78, Q 2.12, I 3.13, E 2.28, K 2, F 2.28, W 3.13, L 2.31, N 2.4, M 2.31, P 2.63, C 1.54, V 3.14, G 1.92, D 2.62, T 2.26, H 1.95
S10: D 2.48, Y 2.02, E 2.25, V 2.16, K 1.99, T 2.24, I 2.91, W 1.68, H 2.1, F 1.26, L 1.84, R 1.71, P 2.03, G 2.1, Q 2.28, N 2.23, C 1.85, A 2.58, M 1.52
I19: N 3.23, L 2.04, A 3.07, K 3.14, H 3.37, G 2.72, Q 3.4, Y 2.06, W 1.51, P 3.1, T 2.91, V 2.38, F 1.64, E 3.34, C 2.37, D 3.65, S 3.29, M 2.33, R 2.7
S22: C 2.52, F 2.23, A 2.38, E 2.58, T 2.35, M 2.55, W 1.36, Q 2.2, N 3.08, H 2.55, P 2.42, R 1.92, V 1.55, G 1.79, D 2.62, Y 1.59, L 1.68, I 1.69, K 2.3
R20: E 3.26, A 1.64, T 2.4, G 2.37, C 1.85, F 2.49, Q 2.36, I 1.86, L 1.55, H 2.68, K 2.4, P 2.48, M 1.79, N 3.1, V 1.57, W 2.43, S 2.63, D 2.96, Y 1.81
P9: K 2.31, Y 2.19, I 2.47, L 2.23, Q 2.17, V 1.44, W 3.09, A 2.65, G 2.31, H 1.74, M 2.09, F 2.45, D 2.53, C 1.87, E 2.44, R 2.27, N 2.27, T 2.12, S 1.73
V11: I 1.91, A 2.38, N 2.35, Q 2.1, G 2.28, H 2.42, R 1.9, F 2.17, P 2.65, C 1.91, S 2.33, T 2.24, K 2.27, Y 1.92, M 1.82, L 1.85, W 1.44, D 2.69, E 2.87
D18: W 2.19, C 2.4, I 3.24, S 1.75, T 1.69, R 1.59, N 2.48, P 1.84, A 1.69, M 2.02, K 1.42, Q 1.98, G 1.65, F 2.25, H 1.39, E 1.31, Y 2.55, L 3, V 2.9
M15: A 2.88, E 3.67, W 2.34, D 2.93, V 1.79, S 2.78, T 2.3, K 3.24, Y 2.2, L 1.74, C 2.49, Q 2.75, I 2.59, G 3.15, F 1.62, R 2.47, H 2.4, P 2.78, N 2.75
E21: Q 1.29, F 2.77, D 2.38, W 3.39, C 2.9, M 2.04, S 1.76, V 1.78, Y 2.4, N 2.08, T 2.01, P 1.42, G 2.42, I 3.55, H 1.95, K 2.2, L 2.64, A 2.37, R 1.53
G12: R 2.4, T 1.56, F 2.1, K 1.9, L 1.52, E 2.45, I 1.78, S 2.19, H 2.1, V 1.7, C 1.78, Q 1.88, A 1.93, W 2.88, P 2.16, Y 2.95, N 2.29, D 2.87, M 1.71
A13: K 2.2, D 2.69, T 1.93, W 3.12, F 2.8, P 2.51, V 1.87, E 2.61, I 2.78, S 1.96, G 2.74, C 1.34, H 1.95, N 2.31, R 1.97, Q 1.98, Y 1.66, M 1.57, L 2.41
L16: G 2.95, A 2.52, T 2.44, P 2.48, D 3.53, Q 2.87, C 2.19, W 1.41, E 3.17, N 3.6, Y 2.31, V 2, F 1.58, H 2.71, M 1.94, S 2.83, K 2.64, R 2.98, I 2.06
T23: F 1.61, V 2.06, P 2.04, M 2.14, L 1.79, E 2.37, G 2.12, C 1.76, R 2.63, Y 1.76, K 2.22, D 2.37, Q 2.09, N 2.14, H 2.45, A 2.01, I 1.69, S 2.48

Variants of: B2
Test: as above
Details: c terminus: a fixed tail appended

Protein stability index: each site, then its substitutions
Q15: H 3.78
A18: C 4.01, L 3.66, P 4.6, I 3.7
V8: E 4.4
N6: L 2.14, Y 1.71
E17: T 4.23, G 4.02
R24: L 2.68, Q 4.18
E11: R 4.03, W 3.15, D 3.81
T2: H 3.38
Q7: K 3.98
E21: T 3.74
N10: L 1.58
D4: W 2.59, K 3.94
P1: L 2.88, Q 3.77, V 2.5
V20: G 4.44, R 4.9, D 4.71
T12: F 2.4
L5: Q 4.38, I 2.24, N 4.57, C 3.68, W 3.3
S14: V 2.82, M 1.65
L9: H 4.66, V 4.28, M 4.21, Y 3.61
V3: T 3.89, H 3.8, E 4.03
N23: T 3.99
T22: I 1.68, E 4.11, N 4.39, F 3.78, H 3.99
R13: F 3.07, C 3.57
